Test results from the supplement of paper PMC9112550, “Optimization of the antimicrobial peptide Bac7 by deep mutational scanning” (BMC Biology, 2022).

Each sequence was assayed on Escherichia coli TOP10 (assay: shrunken log2 fold change of peptide-encoding DNA abundance (4.5 h post-induction vs induction); higher = less antimicrobial activity (less host growth inhibition)). Conditions: time post-induction: 4.5 h; library: site-saturation at positions 5, 18, 19, 20.
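Note: peptides expressed intracellularly from a pBAD plasmid library in pooled LB shake-flask culture, induced with 0.3% L-arabinose, DNA abundance read by NGS, three biological replicates, DESeq2 with apeglm shrinkage.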

Which “shrunken log2 fold change” value does the source give for RRIRLRPPRLPRPRPRPASLPRP here?
The value was 0.105.

For RRIRGRPPRLPRPRPRPNQNPRP, which “shrunken log2 fold change” value is on record?
The value was 0.4.

With RRIRFRPPRLPRPRPRPTNCPRP as the sequence, how does the “shrunken log2 fold change” value read?
Its value is 0.0341.

Which “shrunken log2 fold change” value does the source give for RRIRFRPPRLPRPRPRPLVAPRP here?
Its value is -0.00793.

Which “shrunken log2 fold change” value does the source give for RRIRCRPPRLPRPRPRPKWLPRP here?
Its value is -0.0375.

With RRIRPRPPRLPRPRPRPMSPPRP as the sequence, how does the “shrunken log2 fold change” value read?
The value was -0.194.

How did the “shrunken log2 fold change” value turn out when RRIRPRPPRLPRPRPRPERTPRP was run?
Its value is 0.291.

For RRIRKRPPRLPRPRPRPMSHPRP, which “shrunken log2 fold change” value is on record?
The value was -0.0712.

RRIRMRPPRLPRPRPRPHNRPRP was tested. Which “shrunken log2 fold change” value did it give?
The value was -0.172.

How did the “shrunken log2 fold change” value turn out when RRIRTRPPRLPRPRPRPQRPPRP was run?
Its value is 0.158.

How did the “shrunken log2 fold change” value turn out when RRIRFRPPRLPRPRPRPIYNPRP was run?
Its value is -0.624.

How did the “shrunken log2 fold change” value turn out when RRIRERPPRLPRPRPRPRAMPRP was run?
Its value is 0.0549.

How did the “shrunken log2 fold change” value turn out when RRIRMRPPRLPRPRPRPYEAPRP was run?
The value was 0.029.

RRIRWRPPRLPRPRPRPANAPRP was tested. Which “shrunken log2 fold change” value did it give?
Its value is 0.711.

For RRIRCRPPRLPRPRPRPPCYPRP, which “shrunken log2 fold change” value is on record?
The value was -0.265.

RRIRFRPPRLPRPRPRPPRCPRP was tested. Which “shrunken log2 fold change” value did it give?
The value was 0.612.

With RRIRGRPPRLPRPRPRPDITPRP as the sequence, how does the “shrunken log2 fold change” value read?
The value was 1.01.

Which “shrunken log2 fold change” value does the source give for RRIRLRPPRLPRPRPRPFFFPRP here?
The value was 0.343.

How did the “shrunken log2 fold change” value turn out when RRIRARPPRLPRPRPRPSNFPRP was run?
Its value is -0.221.

Which “shrunken log2 fold change” value does the source give for RRIRVRPPRLPRPRPRPGRVPRP here?
Its value is 0.405.

How did the “shrunken log2 fold change” value turn out when RRIRRRPPRLPRPRPRPGGSPRP was run?
The value was 0.0293.

How did the “shrunken log2 fold change” value turn out when RRIRGRPPRLPRPRPRPWRVPRP was run?
Its value is 0.499.

Which “shrunken log2 fold change” value does the source give for RRIRPRPPRLPRPRPRPMGRPRP here?
Its value is -0.0125.

With RRIRKRPPRLPRPRPRPQTIPRP as the sequence, how does the “shrunken log2 fold change” value read?
The value was 0.0582.

For RRIRSRPPRLPRPRPRPLINPRP, which “shrunken log2 fold change” value is on record?
The value was -0.0856.

RRIRFRPPRLPRPRPRPQHGPRP was tested. Which “shrunken log2 fold change” value did it give?
The value was -0.126.

With RRIRYRPPRLPRPRPRPHCDPRP as the sequence, how does the “shrunken log2 fold change” value read?
The value was -0.0698.

With RRIRIRPPRLPRPRPRPGCRPRP as the sequence, how does the “shrunken log2 fold change” value read?
The value was 0.0314.

RRIRARPPRLPRPRPRPHREPRP was tested. Which “shrunken log2 fold change” value did it give?
The value was 0.0826.

With RRIRDRPPRLPRPRPRPVFNPRP as the sequence, how does the “shrunken log2 fold change” value read?
Its value is -0.353.

With RRIRHRPPRLPRPRPRPLMTPRP as the sequence, how does the “shrunken log2 fold change” value read?
The value was -0.192.

Which “shrunken log2 fold change” value does the source give for RRIRDRPPRLPRPRPRPCDPPRP here?
The value was 0.041.

For RRIRARPPRLPRPRPRPRVAPRP, which “shrunken log2 fold change” value is on record?
Its value is 0.46.

Which “shrunken log2 fold change” value does the source give for RRIRARPPRLPRPRPRPGKLPRP here?
The value was 0.149.

For RRIRPRPPRLPRPRPRPYVNPRP, which “shrunken log2 fold change” value is on record?
Its value is -1.34.

For RRIRIRPPRLPRPRPRPVNWPRP, which “shrunken log2 fold change” value is on record?
The value was -0.229.

How did the “shrunken log2 fold change” value turn out when RRIRSRPPRLPRPRPRPQDKPRP was run?
The value was -0.0231.

For RRIRSRPPRLPRPRPRPHTFPRP, which “shrunken log2 fold change” value is on record?
The value was -1.36.

For RRIRERPPRLPRPRPRPPVVPRP, which “shrunken log2 fold change” value is on record?
Its value is -0.0806.

With RRIRVRPPRLPRPRPRPQAAPRP as the sequence, how does the “shrunken log2 fold change” value read?
The value was 0.0662.

With RRIRDRPPRLPRPRPRPDLWPRP as the sequence, how does the “shrunken log2 fold change” value read?
The value was -0.0295.

For RRIRYRPPRLPRPRPRPNKAPRP, which “shrunken log2 fold change” value is on record?
Its value is -0.0417.

RRIRSRPPRLPRPRPRPIEGPRP was tested. Which “shrunken log2 fold change” value did it give?
Its value is -0.0107.

For RRIRQRPPRLPRPRPRPGGGPRP, which “shrunken log2 fold change” value is on record?
The value was 0.748.

With RRIRKRPPRLPRPRPRPHNRPRP as the sequence, how does the “shrunken log2 fold change” value read?
Its value is -0.137.

With RRIRPRPPRLPRPRPRPVWAPRP as the sequence, how does the “shrunken log2 fold change” value read?
The value was 0.278.

With RRIRLRPPRLPRPRPRPNLQPRP as the sequence, how does the “shrunken log2 fold change” value read?
Its value is -0.0904.

Which “shrunken log2 fold change” value does the source give for RRIRYRPPRLPRPRPRPSMPPRP here?
The value was -1.69.

How did the “shrunken log2 fold change” value turn out when RRIRWRPPRLPRPRPRPCQFPRP was run?
Its value is -0.00192.

For RRIRQRPPRLPRPRPRPKWDPRP, which “shrunken log2 fold change” value is on record?
The value was -0.0672.

How did the “shrunken log2 fold change” value turn out when RRIRPRPPRLPRPRPRPMICPRP was run?
Its value is -0.172.

RRIRHRPPRLPRPRPRPTMKPRP was tested. Which “shrunken log2 fold change” value did it give?
The value was -0.585.

RRIRIRPPRLPRPRPRPTWWPRP was tested. Which “shrunken log2 fold change” value did it give?
The value was 0.0347.

Which “shrunken log2 fold change” value does the source give for RRIRYRPPRLPRPRPRPESTPRP here?
The value was -0.00514.

For RRIRARPPRLPRPRPRPNAQPRP, which “shrunken log2 fold change” value is on record?
Its value is 0.158.

RRIRSRPPRLPRPRPRPDIWPRP was tested. Which “shrunken log2 fold change” value did it give?
The value was 0.00423.

For RRIRHRPPRLPRPRPRPHKPPRP, which “shrunken log2 fold change” value is on record?
Its value is 0.0188.

With RRIRNRPPRLPRPRPRPESLPRP as the sequence, how does the “shrunken log2 fold change” value read?
Its value is 0.0505.

For RRIRSRPPRLPRPRPRPQVFPRP, which “shrunken log2 fold change” value is on record?
The value was 0.0316.

For RRIRSRPPRLPRPRPRPYGRPRP, which “shrunken log2 fold change” value is on record?
Its value is -0.151.

Which “shrunken log2 fold change” value does the source give for RRIRARPPRLPRPRPRPPYGPRP here?
The value was 0.0793.

With RRIRVRPPRLPRPRPRPPDHPRP as the sequence, how does the “shrunken log2 fold change” value read?
The value was 0.271.

For RRIRPRPPRLPRPRPRPCKLPRP, which “shrunken log2 fold change” value is on record?
Its value is -0.609.

RRIRVRPPRLPRPRPRPHDCPRP was tested. Which “shrunken log2 fold change” value did it give?
Its value is -0.162.

Which “shrunken log2 fold change” value does the source give for RRIRVRPPRLPRPRPRPRHAPRP here?
Its value is 0.229.

RRIRIRPPRLPRPRPRPCGIPRP was tested. Which “shrunken log2 fold change” value did it give?
The value was -0.222.

How did the “shrunken log2 fold change” value turn out when RRIRDRPPRLPRPRPRPRIIPRP was run?
The value was -0.00686.

How did the “shrunken log2 fold change” value turn out when RRIRPRPPRLPRPRPRPDSVPRP was run?
Its value is 0.195.

With RRIRARPPRLPRPRPRPHQKPRP as the sequence, how does the “shrunken log2 fold change” value read?
Its value is -0.0267.

With RRIRIRPPRLPRPRPRPLYSPRP as the sequence, how does the “shrunken log2 fold change” value read?
Its value is -0.674.

Which “shrunken log2 fold change” value does the source give for RRIRRRPPRLPRPRPRPMANPRP here?
Its value is 0.136.

How did the “shrunken log2 fold change” value turn out when RRIRPRPPRLPRPRPRPYERPRP was run?
Its value is 0.0304.

RRIRVRPPRLPRPRPRPFIWPRP was tested. Which “shrunken log2 fold change” value did it give?
The value was -0.0481.

With RRIRYRPPRLPRPRPRPKPFPRP as the sequence, how does the “shrunken log2 fold change” value read?
The value was 0.0506.

RRIRPRPPRLPRPRPRPFGDPRP was tested. Which “shrunken log2 fold change” value did it give?
The value was -0.0184.

Which “shrunken log2 fold change” value does the source give for RRIRRRPPRLPRPRPRPRHEPRP here?
Its value is 0.148.

Which “shrunken log2 fold change” value does the source give for RRIRQRPPRLPRPRPRPSWYPRP here?
Its value is -0.0733.

For RRIRRRPPRLPRPRPRPKAGPRP, which “shrunken log2 fold change” value is on record?
The value was 0.319.

For RRIRPRPPRLPRPRPRPNVTPRP, which “shrunken log2 fold change” value is on record?
The value was 0.209.

For RRIRARPPRLPRPRPRPRKFPRP, which “shrunken log2 fold change” value is on record?
Its value is 0.421.

With RRIRRRPPRLPRPRPRPHYWPRP as the sequence, how does the “shrunken log2 fold change” value read?
Its value is 0.0315.

How did the “shrunken log2 fold change” value turn out when RRIRDRPPRLPRPRPRPSYGPRP was run?
Its value is -0.0489.

How did the “shrunken log2 fold change” value turn out when RRIRARPPRLPRPRPRPDEYPRP was run?
The value was -0.0116.

For RRIRTRPPRLPRPRPRPTYTPRP, which “shrunken log2 fold change” value is on record?
Its value is -0.496.

How did the “shrunken log2 fold change” value turn out when RRIRPRPPRLPRPRPRPWQEPRP was run?
Its value is 0.00579.

RRIRDRPPRLPRPRPRPLNTPRP was tested. Which “shrunken log2 fold change” value did it give?
The value was -0.0995.

Which “shrunken log2 fold change” value does the source give for RRIRVRPPRLPRPRPRPVNTPRP here?
Its value is -0.236.

Which “shrunken log2 fold change” value does the source give for RRIRRRPPRLPRPRPRPYIQPRP here?
The value was -0.603.

For RRIRVRPPRLPRPRPRPWHHPRP, which “shrunken log2 fold change” value is on record?
The value was 0.0243.

For RRIRERPPRLPRPRPRPWMPPRP, which “shrunken log2 fold change” value is on record?
The value was -0.062.

RRIRLRPPRLPRPRPRPDINPRP was tested. Which “shrunken log2 fold change” value did it give?
The value was -0.665.

For RRIRSRPPRLPRPRPRPCHNPRP, which “shrunken log2 fold change” value is on record?
The value was -0.364.

RRIRTRPPRLPRPRPRPLKEPRP was tested. Which “shrunken log2 fold change” value did it give?
The value was 0.825.

RRIRRRPPRLPRPRPRPGLCPRP was tested. Which “shrunken log2 fold change” value did it give?
The value was 0.457.

For RRIRPRPPRLPRPRPRPPLCPRP, which “shrunken log2 fold change” value is on record?
Its value is 0.281.

RRIRMRPPRLPRPRPRPTRCPRP was tested. Which “shrunken log2 fold change” value did it give?
The value was 0.863.

Which “shrunken log2 fold change” value does the source give for RRIRERPPRLPRPRPRPANRPRP here?
The value was 0.111.

RRIRVRPPRLPRPRPRPLLGPRP was tested. Which “shrunken log2 fold change” value did it give?
The value was -0.131.

For RRIRDRPPRLPRPRPRPMADPRP, which “shrunken log2 fold change” value is on record?
Its value is 0.523.

Which “shrunken log2 fold change” value does the source give for RRIRHRPPRLPRPRPRPTVDPRP here?
The value was -0.0548.

With RRIRCRPPRLPRPRPRPHDIPRP as the sequence, how does the “shrunken log2 fold change” value read?
The value was -0.00735.

RRIRMRPPRLPRPRPRPRLQPRP was tested. Which “shrunken log2 fold change” value did it give?
The value was 0.417.

Which “shrunken log2 fold change” value does the source give for RRIRWRPPRLPRPRPRPDKSPRP here?
The value was -0.135.

With RRIRQRPPRLPRPRPRPARSPRP as the sequence, how does the “shrunken log2 fold change” value read?
Its value is 0.0407.

How did the “shrunken log2 fold change” value turn out when RRIRGRPPRLPRPRPRPGMNPRP was run?
Its value is 0.105.

With RRIRQRPPRLPRPRPRPVYDPRP as the sequence, how does the “shrunken log2 fold change” value read?
The value was -0.228.

With RRIRPRPPRLPRPRPRPKRNPRP as the sequence, how does the “shrunken log2 fold change” value read?
Its value is 0.142.

RRIRPRPPRLPRPRPRPWTGPRP was tested. Which “shrunken log2 fold change” value did it give?
Its value is -0.125.

With RRIRTRPPRLPRPRPRPQYMPRP as the sequence, how does the “shrunken log2 fold change” value read?
The value was -1.01.
